± gives the uncertainty stated by the source.
Experiment: self-splicing fitness, log relative to wild type (ln ratio); higher = more splicing; Tetrahymena group I intron in knt gene, E. coli kanamycin selection, DiMSum; sequences stand for … in CUCUCU…GGAGGGAAAAGUUAUCAGGCAUGCACCUGGUAGCUAGUCUUUAAACCAAUAGAUUGCAUCGGUUUAAAAGGCAAGACCGUCAAAUUGCGGGAAAGGGGUCAACAGCCGUUCAGUACCAAGUCUCAGGGGAAACUUUGAGAUGGCCUUGCAAAGGGUAUGGUAAUAAGCUGACGGACAUGGUCCUAACCACGCAGCCAAGUCCUAAGUCAACAGAUCUUCUGUUGAUAUGGAUGCAGUUCACAGACUAAAUGUCGGUCGGGGAAGAUGUAUUCUUCUCAUAAGAUAUAGUCGGACCUCUCCUUAAUGGGAGCUAGCGGAUGAAGUGAUGCAACACUGGAGCCGCUGGGAACUAAUUUGUAUGCGAAAGUAUAUUGAUUAGUUUUGGAGUACUCGUGGUCG
Outline: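 Colonies from six replicate transformations of E. coli BL21(DE3) were pooled and amplicon-sequenced on an Illumina HiSeq 2500. The library placed an intron with all eight P1ex-region nucleotides randomised inside the knt kanamycin-resistance gene on pET-22b(+), and cells grew overnight at 37°C or 30°C on LB agar with or without 25 μg/mL kanamycin (plus 100 μg/mL carbenicillin, 50 μM IPTG, 0.2% rhamnose). Fitness is the DiMSum error-weighted combination of wild-type-normalised replicate fold changes, kanamycin versus none.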

Row | Sequence | self-splicing fitness (ln) (30 °C) | self-splicing fitness (ln) (37 °C)
1 | UCACAGCAAUAUUACGCUGG | -3.9 ± 0.26 | -2.94 ± 0.22
2 | UCACAGCAAUAUUACGGAAU | -4.32 ± 0.25 | -2.97 ± 0.22
3 | UCACAGCAAUAUUACGGCCG | -1.24 ± 0.1 | -0.536 ± 0.15
4 | UCACAGCAAUAUUACGGCGA | 0.0998 ± 0.092 | 0.202 ± 0.094
5 | UCACAGCAAUAUUACGGCGU | -3.04 ± 0.19 | -2.93 ± 0.2
6 | UCACAGCAAUAUUACGGCUU | -3.43 ± 0.22 | -1.85 ± 0.17
7 | UCACAGCAAUAUUACGGUAA | -1 ± 0.084 | -0.187 ± 0.088
8 | UCACAGCAAUAUUACGUACU | -2.82 ± 0.17 | -2.09 ± 0.22
9 | UCACAGCAAUAUUACGUAGA | -1.09 ± 0.063 | -0.0941 ± 0.075
10 | UCACAGCAAUAUUACGUCCG | -1.21 ± 0.086 | -0.358 ± 0.098
11 | UCACAGCAAUAUUACGUUCC | -3.38 ± 0.21 | -1.47 ± 0.22
12 | UCACAGCAAUAUUACGUUGG | -2.84 ± 0.11 | -2.81 ± 0.18
13 | UCAGAGCAAUAUUACGAACU | -2.02 ± 0.33 | 
14 | UCAGAGCAAUAUUACGAGUG | -2.93 ± 0.29 | -0.458 ± 0.17
15 | UCAGAGCAAUAUUACGAUGG | -2.97 ± 0.21 | -1.33 ± 0.2
16 | UCAGAGCAAUAUUACGCGAU | -3.02 ± 0.26 | -2.08 ± 0.4
17 | UCAGAGCAAUAUUACGCGUA | -2.57 ± 0.32 | -0.569 ± 0.16
18 | UCAGAGCAAUAUUACGGAAU | -2.94 ± 0.17 | -2.22 ± 0.15
19 | UCAGAGCAAUAUUACGGAUC |  | -2.15 ± 0.33
20 | UCAGAGCAAUAUUACGGGCU | -4.78 ± 0.36 | -2.46 ± 0.25
21 | UCAGAGCAAUAUUACGGGGC | -3.3 ± 0.26 | -2.42 ± 0.41
22 | UCAGAGCAAUAUUACGUAAC | -2.5 ± 0.26 | 
23 | UCAGAGCAAUAUUACGUAAG | -2.92 ± 0.14 | -1.82 ± 0.13
24 | UCAGAGCAAUAUUACGUAGA | -0.896 ± 0.075 | 0.113 ± 0.12
25 | UCAGAGCAAUAUUACGUCAU | -3.84 ± 0.35 | 
26 | UCAGAGCAAUAUUACGUCGG | -1.87 ± 0.2 | -0.479 ± 0.16

Row | Sequence | self-splicing fitness (ln) (30 °C) | self-splicing fitness (ln) (37 °C)
27 | UCAGAGCAAUAUUACGUCUC | -2.81 ± 0.34 | 
28 | UCAGAGCAAUAUUACGUGGG | -3.2 ± 0.16 | -1.96 ± 0.14
29 | UCAGAGCAAUAUUACGUGGU | -4.35 ± 0.39 | -1.78 ± 0.22
30 | UCAGAGCAAUAUUACGUUAG | -3.86 ± 0.42 | -3.25 ± 0.35
31 | UCAGAGCAAUAUUACGUUCG | -1.54 ± 0.11 | -1.07 ± 0.15
32 | UCAUAGCAAUAUUACGAAGA | -2.06 ± 0.36 | -1.56 ± 0.38
33 | UCAUAGCAAUAUUACGACGU | -1.76 ± 0.12 | -1.37 ± 0.15
34 | UCAUAGCAAUAUUACGAGAU | -3.85 ± 0.21 | -3.29 ± 0.26
35 | UCAUAGCAAUAUUACGAGGU | -2.98 ± 0.24 | -3.42 ± 0.32
36 | UCAUAGCAAUAUUACGAUCU | -3.02 ± 0.19 | -1.88 ± 0.18
37 | UCAUAGCAAUAUUACGAUGU | -2.55 ± 0.12 | -0.735 ± 0.1
38 | UCAUAGCAAUAUUACGCACA | -1.21 ± 0.13 | -0.159 ± 0.11
39 | UCAUAGCAAUAUUACGCAUA |  | -1.34 ± 0.47
40 | UCAUAGCAAUAUUACGCCCU | -2.75 ± 0.36 | 
41 | UCAUAGCAAUAUUACGCGGG | -2.79 ± 0.14 | -1.99 ± 0.12
42 | UCAUAGCAAUAUUACGCUCC | -2.92 ± 0.31 | -0.786 ± 0.27
43 | UCAUAGCAAUAUUACGCUUU | -3.91 ± 0.24 | -2.41 ± 0.25
44 | UCAUAGCAAUAUUACGGAGG | -3.54 ± 0.31 | -2.82 ± 0.2
45 | UCAUAGCAAUAUUACGGCAC | -2.93 ± 0.5 | -2.15 ± 0.37
46 | UCAUAGCAAUAUUACGGCAU | -3.91 ± 0.35 | -2.04 ± 0.23
47 | UCAUAGCAAUAUUACGGCUC | -2.73 ± 0.24 | -1.78 ± 0.26
48 | UCAUAGCAAUAUUACGGGCC |  | -3.67 ± 0.46
49 | UCAUAGCAAUAUUACGGGGC |  | -3.14 ± 0.37
50 | UCAUAGCAAUAUUACGGUAC |  | -3.21 ± 0.33
51 | UCAUAGCAAUAUUACGGUGG | -3.13 ± 0.15 | -2.07 ± 0.17
52 | UCAUAGCAAUAUUACGUCGA | -0.314 ± 0.093 | -0.745 ± 0.13

Row | Sequence | self-splicing fitness (ln) (30 °C) | self-splicing fitness (ln) (37 °C)
53 | UCAUAGCAAUAUUACGUUUG | -3.04 ± 0.18 | -1.84 ± 0.2
54 | UCCAAGCAAUAUUACGACGC | -2.45 ± 0.18 | -1.25 ± 0.14
55 | UCCAAGCAAUAUUACGACUC | -3.4 ± 0.29 | -2.62 ± 0.24
56 | UCCAAGCAAUAUUACGAGAA | -0.789 ± 0.16 | -0.569 ± 0.17
57 | UCCAAGCAAUAUUACGAGAG | -2.32 ± 0.12 | -1.85 ± 0.14
58 | UCCAAGCAAUAUUACGAGCC | -2.51 ± 0.49 | -1.88 ± 0.29
59 | UCCAAGCAAUAUUACGAGUC | -3.66 ± 0.19 | -2.97 ± 0.24
60 | UCCAAGCAAUAUUACGAUAC | -3.99 ± 0.42 | -1.11 ± 0.3
61 | UCCAAGCAAUAUUACGAUCA | -1.1 ± 0.14 | -0.861 ± 0.15
62 | UCCAAGCAAUAUUACGAUGU | -1.37 ± 0.057 | -0.338 ± 0.082
63 | UCCAAGCAAUAUUACGCAAU | -3.44 ± 0.22 | -2.71 ± 0.26
64 | UCCAAGCAAUAUUACGCCUU | -4.12 ± 0.22 | -2.98 ± 0.21
65 | UCCAAGCAAUAUUACGGAGA | -0.684 ± 0.087 | -0.415 ± 0.092
66 | UCCAAGCAAUAUUACGGAUU | -4.35 ± 0.2 | -3.1 ± 0.18
67 | UCCAAGCAAUAUUACGGCAG | -4.85 ± 0.46 | -2.84 ± 0.28
68 | UCCAAGCAAUAUUACGGCUG | -2.69 ± 0.15 | -3.33 ± 0.22
69 | UCCAAGCAAUAUUACGGGCU | -3.43 ± 0.14 | -1.95 ± 0.12
70 | UCCAAGCAAUAUUACGGUAG | -4.7 ± 0.41 | -2.21 ± 0.16
71 | UCCAAGCAAUAUUACGUCGA | -0.163 ± 0.075 | 0.376 ± 0.1
72 | UCCAAGCAAUAUUACGUGUA | -0.565 ± 0.043 | 0.504 ± 0.057
73 | UCCAAGCAAUAUUACGUUCG | -3.57 ± 0.27 | -2.2 ± 0.21
74 | UCCCAGCAAUAUUACGAACU | -3.52 ± 0.33 | -2.92 ± 0.43
75 | UCCCAGCAAUAUUACGAAGC | -3.98 ± 0.42 | -1.71 ± 0.24
76 | UCCCAGCAAUAUUACGACGU | -1.53 ± 0.071 | -0.16 ± 0.084
77 | UCCCAGCAAUAUUACGAUGC | -4.03 ± 0.3 | -3.29 ± 0.32
78 | UCCCAGCAAUAUUACGCCGC | -4.73 ± 0.32 | -3.05 ± 0.27

From the supplement of paper PMC7877785
